Reference: US20020037514A1, “Identification of nuclear receptor-dependent coregulator recruitment” (priority 2000, published 2002)

Experiments:
RARγ-V5/RXRα heterodimer [1] = target: T1, RARγ-V5/RXRα heterodimer (Homo sapiens, UniProt P13631); test: DNA modified immunoprecipitation, co-repressor N-CoR recruitment (Example 6); format: biochemical; settings: ligand 1 μM
Procedure: Immunoprecipitation with mouse anti-V5 antibody and Western analysis were conducted as set forth above.

RARγ-V5/RXRα heterodimer [2] = target: T1, RARγ-V5/RXRα heterodimer; test: anti-V5 co-IP from CV-1 lysate, Western anti-N-CoR; DR-5 RARE, 1 uM ligand
[3] = target: RARβ-V5/RXRα heterodimer (human) (UniProt P10826); test: anti-V5 co-IP from CV-1 lysate, Western anti-SRC-1; 1 uM AGN 194204 with DR-5 RARE against 1 uM TTNPB
[4] = target: T2, RARα-V5/RXRγ/DR-5 ternary complex (Homo sapiens, UniProt P10276); test: LXD peptide competition of ATRA-induced co-activator recruitment (Example 7, FIG. 8A); format: biochemical; settings: DR-5 RARE; for effect of peptide on ATRA-induced recruitment of SRC-1: SRC-1 peptides at 40 μl (so in the source); for effect of peptide on ATRA-induced recruitment of ACTR: ACTR peptides at 20 μl (so in the source)
T2 construct: the nuclear receptor subunits used in the invention are full length nuclear receptor monomer subunits; expressed in transfected cells; host or cells: CV-1 (green monkey kidney), whole-cell lysate
T2 sequence (P10276 1-462): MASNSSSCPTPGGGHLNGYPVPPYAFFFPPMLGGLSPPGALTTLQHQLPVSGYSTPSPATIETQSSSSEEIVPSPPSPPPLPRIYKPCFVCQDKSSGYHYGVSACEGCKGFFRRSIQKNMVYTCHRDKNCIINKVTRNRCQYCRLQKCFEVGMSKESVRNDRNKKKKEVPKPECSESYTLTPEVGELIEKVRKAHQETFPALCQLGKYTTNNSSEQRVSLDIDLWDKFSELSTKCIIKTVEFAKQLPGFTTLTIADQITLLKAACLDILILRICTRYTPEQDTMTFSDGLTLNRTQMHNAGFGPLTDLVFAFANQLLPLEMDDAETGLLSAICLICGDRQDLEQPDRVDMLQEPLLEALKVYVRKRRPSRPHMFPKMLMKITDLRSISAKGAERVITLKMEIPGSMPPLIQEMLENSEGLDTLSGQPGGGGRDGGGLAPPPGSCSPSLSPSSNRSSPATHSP
T2 sequence (P28705 1-463 partner): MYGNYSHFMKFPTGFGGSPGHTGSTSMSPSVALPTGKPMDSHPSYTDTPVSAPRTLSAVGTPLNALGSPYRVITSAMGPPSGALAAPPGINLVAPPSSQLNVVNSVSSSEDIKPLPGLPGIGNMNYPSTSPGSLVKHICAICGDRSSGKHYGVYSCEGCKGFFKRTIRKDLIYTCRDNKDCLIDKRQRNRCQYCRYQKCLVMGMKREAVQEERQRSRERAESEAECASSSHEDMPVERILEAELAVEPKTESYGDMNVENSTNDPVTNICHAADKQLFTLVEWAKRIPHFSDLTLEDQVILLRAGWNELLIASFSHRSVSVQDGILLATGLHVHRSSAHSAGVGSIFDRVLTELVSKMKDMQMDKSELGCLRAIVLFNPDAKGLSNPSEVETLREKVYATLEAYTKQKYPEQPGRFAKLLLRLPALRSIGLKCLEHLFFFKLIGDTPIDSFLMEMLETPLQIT
From the text: (§1) Nolte, R. T. et al., Nature 395:137-143 (1998). We addressed the importance of each of the three LXDs in mediating co-activator-receptor interaction using synthetic peptides comprising the LXD1, LXD2 or LXD3 amino acid sequences as competitors with SRC-1 in the DNA modified immunoprecipitation methods of the present invention. These peptides have the following amino acid sequences (with the characteristic LXXLL motif shown in bold):
(§2) Transfection, DR-5 oligonucleotide treatment, ligand treatment, immunoprecipitation and detection of associated co-factors were performed essentially as shown in the previous Examples. CV-1 cells were transfected with plasmids expressing either RARα/RXRγ-V5 or with RARγ/RXRα-V5. Synthetic LXD peptides were added to the cell lysate before the addition of retinoids at a concentration of 20 (ACTR) and 40 (SRC-1) […].

RARγ/RXRα heterodimer = target: T3, RARγ/RXRα heterodimer (Homo sapiens, UniProt P13631); test: LXD peptide competition of ATRA-induced co-activator recruitment (Example 7, FIG. 8B); format: biochemical; settings: DR-5 RARE, compared with the RARα/RXRγ experiment
T3 sequence (P13631 1-454): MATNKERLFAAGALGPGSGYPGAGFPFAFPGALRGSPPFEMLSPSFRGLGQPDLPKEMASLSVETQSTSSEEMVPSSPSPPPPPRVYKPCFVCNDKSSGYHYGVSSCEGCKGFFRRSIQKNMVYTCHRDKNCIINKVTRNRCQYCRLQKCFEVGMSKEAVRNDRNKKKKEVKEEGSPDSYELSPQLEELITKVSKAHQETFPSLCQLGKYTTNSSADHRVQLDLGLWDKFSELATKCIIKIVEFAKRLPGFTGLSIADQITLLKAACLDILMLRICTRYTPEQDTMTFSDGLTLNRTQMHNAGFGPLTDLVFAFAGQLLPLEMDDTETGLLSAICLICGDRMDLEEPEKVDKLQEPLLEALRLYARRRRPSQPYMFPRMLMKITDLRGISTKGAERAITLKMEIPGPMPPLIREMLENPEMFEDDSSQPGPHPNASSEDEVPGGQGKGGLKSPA
T3 sequence (P19793 1-462 partner): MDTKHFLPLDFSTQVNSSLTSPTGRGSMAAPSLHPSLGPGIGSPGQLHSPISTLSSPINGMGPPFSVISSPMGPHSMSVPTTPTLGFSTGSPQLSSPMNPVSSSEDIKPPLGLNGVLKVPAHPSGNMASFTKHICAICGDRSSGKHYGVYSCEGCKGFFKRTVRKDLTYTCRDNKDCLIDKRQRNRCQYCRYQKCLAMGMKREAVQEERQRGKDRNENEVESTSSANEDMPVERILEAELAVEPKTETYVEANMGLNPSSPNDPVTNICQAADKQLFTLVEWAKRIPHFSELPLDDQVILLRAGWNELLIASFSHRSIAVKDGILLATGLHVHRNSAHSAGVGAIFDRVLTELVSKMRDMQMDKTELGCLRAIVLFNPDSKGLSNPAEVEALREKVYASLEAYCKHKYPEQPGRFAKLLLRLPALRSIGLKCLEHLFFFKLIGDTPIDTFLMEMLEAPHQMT
From the text: as §1, §2

[5] = target: RARα/RXR heterodimer bound to a DR-5 retinoic acid receptor response element (Example 9) (human) (UniProt P10276); test: DNA dependent co-IP with DR-5 RARE, Western anti-ACTR; 1 uM ligand AGN196412
[6] = target: RARα/RXR heterodimer bound to a DR-5 retinoic acid receptor response element (Example 9) (human) (UniProt P10276); test: DNA dependent co-IP with DR-5 RARE, Western anti-SRC-1; 1 uM ligand AGN194365
[7] = target: RARα/RXR heterodimer bound to a DR-5 retinoic acid receptor response element (Example 9) (human) (UniProt P10276); test: DNA dependent co-IP with DR-5 RARE, Western anti-SRC-1; 1 uM ligand AGN194794, 196382 or 196412 (which ligand gives which end is not told)

Sequence of RARβ-V5/RXRα heterodimer (human) (P10826 other isoform, or with tags, fused parts or gaps): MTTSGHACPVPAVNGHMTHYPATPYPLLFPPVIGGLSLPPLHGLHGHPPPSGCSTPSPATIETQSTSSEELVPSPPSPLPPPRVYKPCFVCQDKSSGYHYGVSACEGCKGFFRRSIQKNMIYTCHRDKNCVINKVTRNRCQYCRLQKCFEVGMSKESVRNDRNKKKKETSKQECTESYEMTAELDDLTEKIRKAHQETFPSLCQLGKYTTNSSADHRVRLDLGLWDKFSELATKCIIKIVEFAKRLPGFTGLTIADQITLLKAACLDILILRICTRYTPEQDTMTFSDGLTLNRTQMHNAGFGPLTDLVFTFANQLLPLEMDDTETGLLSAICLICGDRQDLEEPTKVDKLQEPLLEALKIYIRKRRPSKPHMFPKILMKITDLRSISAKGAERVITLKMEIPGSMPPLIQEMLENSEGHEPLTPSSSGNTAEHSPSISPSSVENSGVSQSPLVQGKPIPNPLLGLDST

**Q.** How did the N-CoR recruitment (RARγ-V5/RXRα heterodimer [1]; with DR-5 RARE 0.5 μg/ml) turn out when `CC1(C)CCC(c2ccc(F)cc2)c2cc(C#Cc3ccc(C(=O)O)cc3)ccc21` (centres unmarked) [AGN 193840] was run?
**A.** led to N-COR recruitment

**Q.** For `Cc1ccc(C2CCC(C)(C)c3ccc(C#Cc4ccc(C(=O)O)cc4)cc32)cc1` (centres unmarked) [AGN 193109], which “N-CoR recruitment compared to AGN 193840” value (RARγ-V5/RXRα heterodimer [1]; with DR-5 RARE) is on record?
**A.** approximately two-fold increase

**Q.** And the N-CoR recruitment (RARγ-V5/RXRα heterodimer [1]; with DR-5 RARE 0.5 μg/ml)?
**A.** led to N-COR recruitment

**Q.** What about the N-CoR recruitment (RARγ-V5/RXRα heterodimer [1]; with G-5-G DNA element instead of DR-5 RARE) of the same compound?
**A.** failed to result in the detection of co-repressor

**Q.** nuclear receptor co-repressor N-CoR was tested. Which fold increase in N-CoR recruitment with AGN 193109 compared to AGN 193840 (RARγ-V5/RXRα heterodimer [2]) did it give?
**A.** 2 fold

**Q.** With “nuclear receptor co-activator SRC-1, endogenously expressed by CV-1 cells” as the compound, how does the amount of SRC-1 detected compared to treatment with TTNPB [3] read?
**A.** 30%

**Q.** How did the “effect of peptide on ATRA-induced recruitment of SRC-1” value [4] turn out when “KYSQTSHKLVQLLTTTAEQQLR (Nuclear co-activator LXD-containing peptide) [SRC-1 LXD1]” was run?
**A.** no effect

**Q.** What about the “amount of SRC-1 associated in the presence of peptide” value (RARγ/RXRα heterodimer) of the same compound?
**A.** somewhat greater

**Q.** With “nuclear receptor co-activator ACTR (other; other documents disagree on this pair)” as the compound, how does the % recruitment relative to TTNPB [5] read?
**A.** 65%

**Q.** Which “effect of peptide on ATRA-induced recruitment of SRC-1” value [4] does the source give for “KESKDHQLLRYLLDKDEKDLRS (Nuclear co-activator LXD-containing peptide) [SRC-1 LXD3]” here?
**A.** completely abolished

**Q.** “nuclear receptor co-activator SRC-1, endogenously expressed by CV-1 cells (other; other documents disagree on this pair)” was tested. Which % recruitment compared to TTNPB [6] did it give?
**A.** 65%

**Q.** What about the % recruitment relative to TTNPB [7] of the same compound?
**A.** 23 to 32%

**Q.** How did the “effect of peptide on ATRA-induced recruitment of ACTR” value [4] turn out when “LESKGHKKLLQLLTCSSDDRGH (Nuclear co-activator LXD-containing peptide) [ACTR LXD1]” was run?
**A.** abolished

**Q.** How did the “effect of peptide on ATRA-induced recruitment of ACTR” value [4] turn out when “LLQEKHRTLHKLLQNGNSPAEV (LLQEKHRILHKLLQNGNSPAEV; Nuclear co-activator LXD-containing peptide) [ACTR LXD2]” was run?
**A.** abolished
